Reference: PMC6520365, “Structural and functional characterization of the PDZ domain of the human phosphatase PTPN3 and its interaction with the human papillomavirus E6 oncoprotein” (Scientific Reports, 2019)

Legend:
Conditions in all cases: both partners purified
[1] = biological target: T1, PDZ domain of the human protein tyrosine phosphatase non-receptor type 3 (PTPN3-PDZ) (human, UniProt P26045-1 504-913, Start 504 is printed. End 597 comes from the 6HKS entity and fits the printed 94 residues (89 non-Pro). GST removed by TEV; any residual tag residues left out.); test: AUC; sedimentation velocity, PTPN3-PDZ at 70 μM with HBVc PBM peptide, 20 °C, 42000 rpm
[2] = biological target: PTPN3-PDZ_(Next), PDZ domain of human PTPN3 extended at the N-terminus by 15 residues of its wild-type … (human, UniProt P26045-1 489-913, Start 489 is 504 minus the 15 residues printed. End 597 comes from the 6HKS entity (residues 6-114); its GAMGS tag remnant is left out.); test: AUC; sedimentation velocity, PTPN3-PDZ_(Next) at 70 μM with PBM peptide, 20 °C, 42000 rpm
Sequence of PTPN3-PDZ_(Next), PDZ domain of human PTPN3 extended at the N-terminus by 15 residues of its wild-type … (P26045 489-913): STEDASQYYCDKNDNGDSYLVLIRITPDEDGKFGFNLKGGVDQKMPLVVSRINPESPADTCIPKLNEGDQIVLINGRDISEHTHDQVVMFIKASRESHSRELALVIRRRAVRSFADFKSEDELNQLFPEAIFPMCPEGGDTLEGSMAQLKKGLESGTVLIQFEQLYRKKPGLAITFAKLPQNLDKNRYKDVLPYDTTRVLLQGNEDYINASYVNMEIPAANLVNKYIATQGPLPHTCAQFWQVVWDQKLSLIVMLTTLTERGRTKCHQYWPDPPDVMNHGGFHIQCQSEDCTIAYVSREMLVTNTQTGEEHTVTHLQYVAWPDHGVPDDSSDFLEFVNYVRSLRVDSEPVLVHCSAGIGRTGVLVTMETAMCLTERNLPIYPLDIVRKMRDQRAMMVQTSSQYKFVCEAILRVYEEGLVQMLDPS

[3] = biological target: T1, PDZ domain of the human protein …; test: NMR titration; unlabeled peptide added stepwise to 15N-labeled PTPN3-PDZ at 95 or 149 μM; 1H,15N HSQC chemical shift perturbations; 15 °C; 50 mM Tris/HCl pH 7.5, 150 mM NaCl, 0.5 mM TCEP; KD from 8 to 14 fitted curves
[4] = biological target: HPV18E6 PBM peptide (C-terminal sequence of the human papillomavirus type 18 E6 protein) (human papillomavirus type 18); test: as above

| Binder | stoichiometry N [1] | stoichiometry N [2] | Kd [3] [µM] | Kd [4] [µM] |
| --- | --- | --- | --- | --- |
| RRRRSQSRESQC (also called HBV Core PBM; source: synthetic peptide (Fmoc solid phase, Proteogenix)) [HBVc PBM peptide (C-terminal sequence of the hepatitis B virus core protein)] | 1 | 1 | 29 | – |
| SWARVSKETPL (also called MAPK12 PBM; source: synthetic peptide (Fmoc solid phase, Proteogenix)) [p38γ PBM peptide (C-terminal sequence of the MAP kinase p38γ)] | – | – | 26 | – |
| PDZ domain of the human protein tyrosine phosphatase non-receptor type 3 (PTPN3-PDZ) (domain or fragment) GDSYLVLIRITPDEDGKFGFNLKGGVDQKMPLVVSRINPESPADTCIPKLNEGDQIVLINGRDISEHTHDQVVMFIKASRESHSRELALVIRRR | – | – | – | 37 |
| RSSRTRRETQL (Only the last seven residues (TRRETQL) are seen in the crystal; also called PBM of HPV16 E6; source: synthetic peptide (Fmoc solid phase, Proteogenix)) [HPV16E6 PBM peptide (C-terminal sequence of the human papillomavirus type 16 E6 protein)] | – | 1 | 53 | – |
